In the supplement of paper PMC10567573:
± gives the standard deviation.

Assay: protein stability index of a GFP-peptide fusion (GPS, HEK-293T) (PSI 1-6); higher = more stable
Details: c terminus: a fixed tail appended
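Further: 24-mer peptide tiles fused after GFP, lentivirally expressed, FACS-sorted into six equal bins by GFP/DsRed ratio, decoded by Illumina sequencing, PSI is the read-weighted mean bin number.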

Sequence	protein stability index (treatment: DMSO)	protein stability index (treatment: MLN4924 1 uM, 8 h)
DIASRYPTLWTEQVKSRQNKTNKN [SMOC2]	3.98 ± 0.18	4.36 ± 0.33
DIEQFFNIGDSSSGLIQTVFISSY [SPNS1]	2.68 ± 0.39	2.66 ± 0.8
DIFALALTVVCAAGAEPLPRNGDQ [WEE1]	2.77 ± 0.22	2.54 ± 0.61
DILMEEEEGVVGGLSGGALSPLRA [TFE3]	4.45 ± 0.42	4.11 ± 0.23
DIVFSKIKGKSCRTITFEQFQEAL [TPPP]	2.46 ± 0.29	2.31 ± 0.13
DLFDLCDRTFTLKTVLMIAIQLLS [CSNK1G1]	2.6 ± 0.43	2.33 ± 0.42
DLKLGNFFINEAMELKVGDFGLAA [PLK2]	2.14 ± 0.078	2.63 ± 0.17
DLLPVWLLEDMRASEAFHWDERGR [ANKRD9]	2.52 ± 0.5	2.87 ± 0.45
DLQITDQVALLRLTWSELFVLNAA [NR2F2]	2.92 ± 0.58	2.88 ± 0.65
DLSGRRLRDVNHEKAMAEWVKQQA [SDE2]	4.24 ± 0.2	4.13 ± 0.37
DNPFGIYQKILAGKIDFPRHLDFH [PRKX]	2.1 ± 0.33	2.23 ± 0.28
DPEVFKEMMRFIYTGRAPNLDKMA [SPOPL]	2.25 ± 0.32	2.41 ± 0.26
DPGQQFTWEHSNLEVNKPKNRYAN [PTPRD]	4.99 ± 0.39	4.98 ± 0.26
DPGQVGLINSNVSMVDLTSVTLED [FAN1]	5.05 ± 0.092	4.79 ± 0.2
DPSGVSGATVGRKSRRSRSESETS [C18orf25]	5.69 ± 0.17	5.42 ± 0.49
DQLFMQEKARQLLGRLKPSHTSRT [MYBL2]	3.29 ± 0.27	3.76 ± 0.43
DQLLLNYAKKESDLNGAQIKLREY [LMNB1]	3.617 ± 0.031	3.71 ± 0.1
DRECKLPPPSAPASEYCPGKLSWG [WDR88]	3.79 ± 0.13	3.96 ± 0.36

Sequence	protein stability index (treatment: DMSO)	protein stability index (treatment: MLN4924 1 uM, 8 h)
DREGYTSFWNDCISSGLRGCMLIE [GOLPH3]	2.08 ± 0.28	2.31 ± 0.19
DRFAQDSEMKKCSDYESIEVPDSY [PPEF2]	5.15 ± 0.23	5.15 ± 0.34
DRIRFTVNRRISIVGFGLYGSIHG [BTBD1]	2.25 ± 0.61	2.32 ± 1.2
DSDDDDDVAVTVDRDRFMDEFFEQ [STX1A]	5.36 ± 0.49	5.43 ± 0.32
DSDKLSGLWSRISHLVLPVQPVSS [TOR1AIP2]	2.3 ± 0.24	2.32 ± 0.21
DSGVGKSNLLSRFTRNEFNLESKS [RAB11A]	4.03 ± 0.11	4.08 ± 0.21
DSQQPGKRRKDSEEEAASPEGKRV [FANCE]	5.66 ± 0.13	5.5 ± 0.25
DSYESYGNSRSAPPTRGPPPSYGG [RBMX]	4.27 ± 0.35	4.33 ± 0.4
DTALLNLLPMLDALRFTADVRSVL [CTDNEP1]	2.78 ± 0.48	2.58 ± 0.42
DVAVHMPCLGHTFNAGIQQAFQLP [ZBED1]	2.53 ± 0.36	2.8 ± 0.36
DVNDNSPELTITSLFSPVTEDSPL [PCDHGA10]	4.53 ± 0.21	4.65 ± 0.36
DVSLCRWHPKPYCQALPYGPGYWM [FBXO34]	2.33 ± 0.35	2.15 ± 0.32
DWVSDWSSRPENIPPKEFHFRHPK [BNIP3L]	3.79 ± 0.27	3.68 ± 0.093
EAAGGESALAPSVFKQAKDKVSDG [MAP2]	5.46 ± 0.26	5.43 ± 0.32
EAEKLERQLALPATEQAATQESTF [NOP53]	5.43 ± 0.32	5.53 ± 0.1
EAFLAQFSQLEDKFPGQSSFLWQR [TOR1AIP2]	2.39 ± 0.56	2.5 ± 0.53
EAKEGDLHRIEIPFKFHMLHSGLV [CARM1]	2.07 ± 0.48	2.49 ± 0.23
EALGHMFMYFLRGSLPWQGLKADT [CSNK1G1]	3.63 ± 0.22	3.19 ± 0.4
